From US20230295348A1 (NOVIMMUNE, published 2023) come the findings set out here.

Holding throughout (experiment): direct ELISA, biotinylated recombinant protein on streptavidin plates
One experiment has as its target T1, human recombinant IL-2Rβ (human, UniProt P14784 27-239, limits assumed).
T1 construct: Biotinylated and captured on streptavidin plates in the ELISA; also called IL-2Rb; IL2Rb
T1 sequence (looked up): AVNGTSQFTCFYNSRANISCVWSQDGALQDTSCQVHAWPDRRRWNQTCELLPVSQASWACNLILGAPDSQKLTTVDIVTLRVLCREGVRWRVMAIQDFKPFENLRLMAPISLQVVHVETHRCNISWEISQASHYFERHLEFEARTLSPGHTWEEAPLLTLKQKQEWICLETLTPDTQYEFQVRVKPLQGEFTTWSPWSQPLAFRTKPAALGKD

For a further experiment, the target named is T2, human recombinant IL-2Rγ (human, UniProt P31785 23-262, limits assumed).
T2 construct: Biotinylated and captured on streptavidin plates in the ELISA; also called IL-2Rg; IL2Rg
T2 sequence (looked up): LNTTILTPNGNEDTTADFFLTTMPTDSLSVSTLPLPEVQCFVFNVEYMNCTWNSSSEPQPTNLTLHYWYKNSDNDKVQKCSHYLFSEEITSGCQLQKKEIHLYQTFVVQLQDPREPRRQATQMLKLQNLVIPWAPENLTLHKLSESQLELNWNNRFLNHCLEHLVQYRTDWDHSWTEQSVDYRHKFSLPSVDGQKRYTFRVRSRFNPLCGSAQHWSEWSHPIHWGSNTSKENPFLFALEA

In experiment [1] the target is T3, recombinant Human carcinoembryonic antigen (human, UniProt P06731 35-685, limits assumed).
T3 construct: Irrelevant control protein of the ELISA, biotinylated and captured on streptavidin plates; also called irrelevant protein; CEA
T3 sequence (looked up): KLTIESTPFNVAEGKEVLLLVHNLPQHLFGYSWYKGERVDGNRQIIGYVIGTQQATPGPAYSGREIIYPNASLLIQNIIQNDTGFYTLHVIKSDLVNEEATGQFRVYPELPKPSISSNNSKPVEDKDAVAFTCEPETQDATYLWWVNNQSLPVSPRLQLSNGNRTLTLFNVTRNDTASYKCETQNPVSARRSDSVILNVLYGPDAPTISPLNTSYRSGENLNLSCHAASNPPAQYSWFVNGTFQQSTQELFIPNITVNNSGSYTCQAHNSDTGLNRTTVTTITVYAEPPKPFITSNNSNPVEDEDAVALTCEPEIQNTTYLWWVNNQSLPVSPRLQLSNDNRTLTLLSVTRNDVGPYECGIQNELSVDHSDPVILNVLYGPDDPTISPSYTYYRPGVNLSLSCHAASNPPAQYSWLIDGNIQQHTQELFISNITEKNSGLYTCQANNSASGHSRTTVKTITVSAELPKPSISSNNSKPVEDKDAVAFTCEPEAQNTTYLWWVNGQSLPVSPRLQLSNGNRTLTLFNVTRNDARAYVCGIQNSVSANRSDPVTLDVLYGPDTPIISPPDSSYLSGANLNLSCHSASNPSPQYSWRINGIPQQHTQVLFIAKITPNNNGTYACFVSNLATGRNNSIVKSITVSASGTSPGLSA

A further experiment has as its target T4, human recombinant HER2 (human, UniProt P04626 23-652).
T4 construct: Biotinylated and captured on streptavidin plates in the ELISA; also called human epidermal growth factor receptor 2

B1: AL4O38 (bispecific antibody, human IgG1, kappa, lambda, L234A L235A)
heavy: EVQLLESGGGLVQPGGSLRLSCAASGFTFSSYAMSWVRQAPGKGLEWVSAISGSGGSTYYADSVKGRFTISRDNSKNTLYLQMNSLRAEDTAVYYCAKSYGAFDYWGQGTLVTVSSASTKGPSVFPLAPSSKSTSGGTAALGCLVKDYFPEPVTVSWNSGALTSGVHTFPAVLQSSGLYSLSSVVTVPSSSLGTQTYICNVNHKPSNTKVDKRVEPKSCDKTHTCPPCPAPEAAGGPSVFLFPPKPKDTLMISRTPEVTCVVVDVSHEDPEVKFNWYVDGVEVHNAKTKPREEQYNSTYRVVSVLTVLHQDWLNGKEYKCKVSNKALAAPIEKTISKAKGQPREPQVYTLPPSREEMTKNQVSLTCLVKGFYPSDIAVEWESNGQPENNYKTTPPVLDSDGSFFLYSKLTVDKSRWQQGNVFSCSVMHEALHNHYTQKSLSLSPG
light 1: DIQMTQSPSSLSASVGDRVTITCRASQSIDEYLNWYQQKPGKAPKLLIYEASKLQSGVPSRFSGSGSGTDFTLTISSLQPEDFATYYCQQDGAMDTYATFGQGTKVEIKRTVAAPSVFIFPPSDEQLKSGTASVVCLLNNFYPREAKVQWKVDNALQSGNSQESVTEQDSKDSTYSLSSTLTLSKADYEKHKVYACEVTHQGLSSPVTKSFNRGEC
light 2: QPVLTQPASLSASPGASASLTCTLRSGINVRDYRIFWYQQKPGSPPQYLLRYKSASDKQQGSGVPSRFSGSKDASANAGILLISGLQSEDEADYYCMIWHHDSEGHAFVFGGGTKLTVLGQPKAAPSVTLFPPSSEELQANKATLVCLISDFYPGAVTVAWKADSSPVKAGVETTTPSKQSNNKYAASSYLSLTPEQWKSHRSYSCQVTHEGSTVEKTVAPTECS
notes: κλ-body: common heavy chain, kappa anti-IL2Rβ light chain (AL4), lambda anti-MSLN light chain (O38); also called AL4O38/N
For the molecule B1, in the experiment with human recombinant IL-2Rβ, the binding result is “binds”.

B2: AL4O41 (bispecific antibody, human IgG1, kappa, lambda, L234A L235A)
heavy: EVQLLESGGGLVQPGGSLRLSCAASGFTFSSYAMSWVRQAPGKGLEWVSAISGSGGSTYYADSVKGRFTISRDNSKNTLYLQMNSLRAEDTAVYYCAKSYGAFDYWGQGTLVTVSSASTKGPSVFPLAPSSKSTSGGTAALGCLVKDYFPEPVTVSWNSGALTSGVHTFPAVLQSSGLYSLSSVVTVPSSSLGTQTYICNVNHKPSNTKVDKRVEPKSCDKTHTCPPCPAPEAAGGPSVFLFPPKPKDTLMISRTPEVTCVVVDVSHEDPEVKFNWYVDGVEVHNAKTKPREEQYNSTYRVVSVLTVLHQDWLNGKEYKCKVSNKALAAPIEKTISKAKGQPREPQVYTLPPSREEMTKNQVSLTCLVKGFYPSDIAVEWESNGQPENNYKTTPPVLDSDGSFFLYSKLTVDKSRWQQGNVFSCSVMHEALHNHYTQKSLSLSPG
light 1: DIQMTQSPSSLSASVGDRVTITCRASQSIDEYLNWYQQKPGKAPKLLIYEASKLQSGVPSRFSGSGSGTDFTLTISSLQPEDFATYYCQQDGAMDTYATFGQGTKVEIKRTVAAPSVFIFPPSDEQLKSGTASVVCLLNNFYPREAKVQWKVDNALQSGNSQESVTEQDSKDSTYSLSSTLTLSKADYEKHKVYACEVTHQGLSSPVTKSFNRGEC
light 2: SYVLTQPPSVSVAPGKTARITCGGNKIGHRAVHWYQQKPGQAPVLVIYYTYERPSGIPERFSGSNSGNTATLTISRVEAGDEADYYCQVWDWYSEGGVVFGGGTKLTVLGQPKAAPSVTLFPPSSEELQANKATLVCLISDFYPGAVTVAWKADSSPVKAGVETTTPSKQSNNKYAASSYLSLTPEQWKSHRSYSCQVTHEGSTVEKTVAPTECS
notes: κλ-body: common heavy chain, kappa anti-IL2Rβ light chain (AL4), lambda anti-MSLN light chain (O41); also called AL4O41/N
Regarding B2, the binding result with human recombinant IL-2Rβ is given as “binds”.

B3: P1A3×P2C4 (bispecific antibody, V domains shown)
VH 1: QVQLQQWGAGLLKPSETLSLTCAVYGGSFSGYYWSWIRQPPGKGLEWIGEINHSGSTNYNPSLKSRATISVDTSKNQFSLKLSSVTAADTAVYYCATSPGGYSGGYFQHWGQGTLVTVSS
VL 1: not shown
VH 2: EVQLVQSGAEVKKPGSSVKVSCKASGYTFTNYYMHWVRQAPGQGLEWMGAIMPSRGGTSYPQKFQGRVTMTGDTSTSTVYMELSSLRSEDTAVYYCARGEYYYDSSGYYYWGQGTLVTVSS
VL 2: QSALTQPASVSGSPGQSIAISCTGTSSDIGHYDFVSWYQQHPGTAPKLIIYDINNRPSGISNRFSGSKSDNMASLTISGLQPEDEADYYCSAYTSSDTLVFGGGTKLT
notes: anti-IL-2Rβ (P2C4) in the knob arm; also called anti-IL-2Rβ×anti-IL-2Rγ bsAb; IL-2Rβ×IL-2Rγ KiH bsAb
Regarding B3, the binding result with human recombinant IL-2Rβ is “binds”; in the experiment with human recombinant IL-2Rγ, “binds”; in experiment [1] it was “no binding”.

B4: AL1N2-28 (bispecific antibody, human IgG1, kappa, lambda, L234A L235A)
heavy: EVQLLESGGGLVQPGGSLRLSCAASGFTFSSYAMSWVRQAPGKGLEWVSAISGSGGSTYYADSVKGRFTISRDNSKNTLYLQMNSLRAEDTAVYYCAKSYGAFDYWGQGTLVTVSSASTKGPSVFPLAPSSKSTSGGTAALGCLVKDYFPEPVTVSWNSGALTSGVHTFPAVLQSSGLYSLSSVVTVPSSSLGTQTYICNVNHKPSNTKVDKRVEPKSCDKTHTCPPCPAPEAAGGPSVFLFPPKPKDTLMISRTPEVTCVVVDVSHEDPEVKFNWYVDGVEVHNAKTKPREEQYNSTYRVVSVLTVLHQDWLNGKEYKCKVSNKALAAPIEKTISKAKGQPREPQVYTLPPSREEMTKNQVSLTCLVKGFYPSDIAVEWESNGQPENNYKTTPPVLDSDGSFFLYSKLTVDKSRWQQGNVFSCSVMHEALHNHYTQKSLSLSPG
light 1: not shown
light 2: SYVLTQPPSVSVAPGKTARITCGGNTIGSTVVHWYQQKPGQAPVLVIYFDDARPSGIPERFSGSNSGNTATLTISRVEAGDEADYYCQVWDSFGLSLAPVFGGGTKLTVLGQPKAAPSVTLFPPSSEELQANKATLVCLISDFYPGAVTVAWKADSSPVKAGVETTTPSKQSNNKYAASSYLSLTPEQWKSHRSYSCQVTHEGSTVEKTVAPTECS
notes: κλ-body: common heavy chain, kappa anti-IL2Rβ light chain (AL1), lambda anti-HER2 light chain (N2-28); also called AL1N2-28/N
Turning to B4, the binding result with human recombinant IL-2Rβ and with human recombinant HER2 was “binds” throughout.

B5: AL5N2-28 (bispecific antibody, human IgG1, kappa, lambda, L234A L235A)
heavy: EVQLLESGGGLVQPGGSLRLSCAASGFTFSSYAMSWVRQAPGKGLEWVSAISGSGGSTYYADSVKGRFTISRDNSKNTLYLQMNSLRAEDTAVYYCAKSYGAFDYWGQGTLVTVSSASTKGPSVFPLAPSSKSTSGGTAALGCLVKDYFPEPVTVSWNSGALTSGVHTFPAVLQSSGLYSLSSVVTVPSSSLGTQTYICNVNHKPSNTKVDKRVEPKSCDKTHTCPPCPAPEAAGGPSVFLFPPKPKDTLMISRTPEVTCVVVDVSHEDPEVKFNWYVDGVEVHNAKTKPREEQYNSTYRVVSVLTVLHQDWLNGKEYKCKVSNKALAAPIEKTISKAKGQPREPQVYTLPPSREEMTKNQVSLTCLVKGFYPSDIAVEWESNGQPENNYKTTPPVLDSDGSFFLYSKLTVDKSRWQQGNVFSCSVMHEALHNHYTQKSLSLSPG
light 1: not shown
light 2: SYVLTQPPSVSVAPGKTARITCGGNTIGSTVVHWYQQKPGQAPVLVIYFDDARPSGIPERFSGSNSGNTATLTISRVEAGDEADYYCQVWDSFGLSLAPVFGGGTKLTVLGQPKAAPSVTLFPPSSEELQANKATLVCLISDFYPGAVTVAWKADSSPVKAGVETTTPSKQSNNKYAASSYLSLTPEQWKSHRSYSCQVTHEGSTVEKTVAPTECS
notes: κλ-body: common heavy chain, kappa anti-IL2Rβ light chain (AL5), lambda anti-HER2 light chain (N2-28); also called AL5N2-28/N
Regarding B5, the binding result with human recombinant IL-2Rβ and with human recombinant HER2 was “binds” each time.

B6: AL2N2-28 (bispecific antibody, human IgG1, kappa, lambda, L234A L235A)
heavy: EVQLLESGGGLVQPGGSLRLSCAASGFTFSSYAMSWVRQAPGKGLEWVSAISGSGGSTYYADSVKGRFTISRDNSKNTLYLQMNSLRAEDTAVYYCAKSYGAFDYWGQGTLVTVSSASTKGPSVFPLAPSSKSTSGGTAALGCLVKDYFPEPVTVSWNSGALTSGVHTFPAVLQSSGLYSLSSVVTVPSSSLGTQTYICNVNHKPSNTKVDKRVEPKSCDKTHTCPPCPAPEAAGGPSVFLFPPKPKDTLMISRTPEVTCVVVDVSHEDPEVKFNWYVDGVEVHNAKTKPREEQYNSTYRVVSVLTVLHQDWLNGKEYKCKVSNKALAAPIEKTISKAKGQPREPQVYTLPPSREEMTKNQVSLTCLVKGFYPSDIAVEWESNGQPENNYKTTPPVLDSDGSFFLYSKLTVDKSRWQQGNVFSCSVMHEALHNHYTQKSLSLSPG
light 1: not shown
light 2: SYVLTQPPSVSVAPGKTARITCGGNTIGSTVVHWYQQKPGQAPVLVIYFDDARPSGIPERFSGSNSGNTATLTISRVEAGDEADYYCQVWDSFGLSLAPVFGGGTKLTVLGQPKAAPSVTLFPPSSEELQANKATLVCLISDFYPGAVTVAWKADSSPVKAGVETTTPSKQSNNKYAASSYLSLTPEQWKSHRSYSCQVTHEGSTVEKTVAPTECS
notes: κλ-body: common heavy chain, kappa anti-IL2Rβ light chain (AL2), lambda anti-HER2 light chain (N2-28); also called AL2N2-28/N
Consider B6, for which the binding result with human recombinant IL-2Rβ and in the experiment with human recombinant HER2 was “binds” each time.

B7: AL4N2-28 (bispecific antibody, human IgG1, kappa, lambda, L234A L235A)
heavy: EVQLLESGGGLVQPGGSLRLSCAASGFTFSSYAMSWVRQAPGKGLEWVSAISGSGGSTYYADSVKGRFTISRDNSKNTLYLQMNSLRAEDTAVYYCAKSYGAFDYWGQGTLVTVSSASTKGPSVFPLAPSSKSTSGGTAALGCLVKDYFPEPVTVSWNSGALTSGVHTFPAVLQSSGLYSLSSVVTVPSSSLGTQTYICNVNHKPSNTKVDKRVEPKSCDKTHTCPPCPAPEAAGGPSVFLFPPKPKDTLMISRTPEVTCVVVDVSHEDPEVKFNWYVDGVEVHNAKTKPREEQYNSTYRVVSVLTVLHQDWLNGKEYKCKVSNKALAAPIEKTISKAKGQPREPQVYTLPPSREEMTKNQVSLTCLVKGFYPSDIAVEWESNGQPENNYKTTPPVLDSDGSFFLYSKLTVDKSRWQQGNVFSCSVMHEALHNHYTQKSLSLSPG
light 1: DIQMTQSPSSLSASVGDRVTITCRASQSIDEYLNWYQQKPGKAPKLLIYEASKLQSGVPSRFSGSGSGTDFTLTISSLQPEDFATYYCQQDGAMDTYATFGQGTKVEIKRTVAAPSVFIFPPSDEQLKSGTASVVCLLNNFYPREAKVQWKVDNALQSGNSQESVTEQDSKDSTYSLSSTLTLSKADYEKHKVYACEVTHQGLSSPVTKSFNRGEC
light 2: SYVLTQPPSVSVAPGKTARITCGGNTIGSTVVHWYQQKPGQAPVLVIYFDDARPSGIPERFSGSNSGNTATLTISRVEAGDEADYYCQVWDSFGLSLAPVFGGGTKLTVLGQPKAAPSVTLFPPSSEELQANKATLVCLISDFYPGAVTVAWKADSSPVKAGVETTTPSKQSNNKYAASSYLSLTPEQWKSHRSYSCQVTHEGSTVEKTVAPTECS
notes: κλ-body: common heavy chain, kappa anti-IL2Rβ light chain (AL4), lambda anti-HER2 light chain (N2-28); also called AL4N2-28/N
With B7, the binding result with human recombinant IL-2Rβ and with human recombinant HER2 was “binds” each time.

B8: AL3N2-28 (bispecific antibody, human IgG1, kappa, lambda, L234A L235A)
heavy: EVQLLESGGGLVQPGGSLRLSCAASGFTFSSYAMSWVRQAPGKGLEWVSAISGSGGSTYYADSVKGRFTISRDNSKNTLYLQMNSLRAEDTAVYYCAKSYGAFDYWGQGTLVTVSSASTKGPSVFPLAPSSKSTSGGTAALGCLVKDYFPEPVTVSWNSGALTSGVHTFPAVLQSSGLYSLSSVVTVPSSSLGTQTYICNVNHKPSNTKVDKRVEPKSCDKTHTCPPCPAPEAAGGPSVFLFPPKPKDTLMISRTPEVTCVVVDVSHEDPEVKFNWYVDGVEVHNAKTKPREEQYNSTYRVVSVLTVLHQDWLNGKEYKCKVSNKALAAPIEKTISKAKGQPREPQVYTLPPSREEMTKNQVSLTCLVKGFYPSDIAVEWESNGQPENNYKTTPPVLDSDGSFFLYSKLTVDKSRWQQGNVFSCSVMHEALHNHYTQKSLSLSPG
light 1: not shown
light 2: SYVLTQPPSVSVAPGKTARITCGGNTIGSTVVHWYQQKPGQAPVLVIYFDDARPSGIPERFSGSNSGNTATLTISRVEAGDEADYYCQVWDSFGLSLAPVFGGGTKLTVLGQPKAAPSVTLFPPSSEELQANKATLVCLISDFYPGAVTVAWKADSSPVKAGVETTTPSKQSNNKYAASSYLSLTPEQWKSHRSYSCQVTHEGSTVEKTVAPTECS
notes: κλ-body: common heavy chain, kappa anti-IL2Rβ light chain (AL3), lambda anti-HER2 light chain (N2-28); also called AL3N2-28/N
For the molecule B8, the binding result with human recombinant IL-2Rβ and with human recombinant HER2 was “binds” throughout.
